B1: Serine/threonine-protein kinase TBK1 (Homo sapiens), Q9UHD2 (parent)
chain: MQSTSNHLWLLSDILGQGATANVFRGRHKKTGDLFAIKVFNNISFLRPVDVQMREFEVLKKLNHKNIVKLFAIEEETTTRHKVLIMEFCPCGSLYTVLEEPSNAYGLPESEFLIVLRDVVGGMNHLRENGIVHRDIKPGNIMRVIGEDGQSVYKLTDFGAARELEDDEQFVSLYGTEEYLHPDMYERAVLRKDHQKKYGATVDLWSIGVTFYHAATGSLPFRPFEGPRRNKEVMYKIITGKPSGAISGVQKAENGPIDWSGDMPVSCSLSRGLQVLLTPVLANILEADQEKCWGFDQFFAETSDILHRMVIHVFSLQQMTAHKIYIHSYNTATIFHELVYKQTKIISSNQELIYEGRRLVLEPGRLAQHFPKTTEENPIFVVSREPLNTIGLIYEKISLPKVHPRYDLDGDASMAKAITGVVCYACRIASTLLLYQELMRKGIRWLIELIKDDYNETVHKKTEVVITLDFCIRNIEKTVKVYEKLMKINLEAAELGEISDIHTKLLRLSSSQGTIETSLQDIDSRLSPGGSLADAWAHQEGTHPKDRNVEKLQVLLNCMTEIYYQFKKDKAERRLAYNEEQIHKFDKQKLYYHATKAMTHFTDECVKKYEAFLNKSEEWIRKMLHLRKQLLSLTNQCFDIEEEVSKYQEYTNELQETLPQKMFTASSGIKHTMTPIYPSSNTLVEMTLGMKKLKEEMEGVVKELAENNHILERFGSLTMDGGLRNVDCL
partner: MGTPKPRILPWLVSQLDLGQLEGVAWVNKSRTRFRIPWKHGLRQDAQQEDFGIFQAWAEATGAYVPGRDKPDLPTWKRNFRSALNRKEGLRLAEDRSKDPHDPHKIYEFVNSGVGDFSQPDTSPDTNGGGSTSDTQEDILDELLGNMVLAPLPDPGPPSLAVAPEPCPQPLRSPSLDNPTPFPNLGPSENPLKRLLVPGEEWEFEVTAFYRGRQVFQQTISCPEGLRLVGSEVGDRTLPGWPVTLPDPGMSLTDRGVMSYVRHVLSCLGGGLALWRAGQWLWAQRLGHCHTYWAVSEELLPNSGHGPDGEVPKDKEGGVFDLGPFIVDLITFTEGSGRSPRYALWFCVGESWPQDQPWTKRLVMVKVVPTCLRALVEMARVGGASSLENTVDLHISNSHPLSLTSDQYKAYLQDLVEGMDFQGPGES
B2: Inhibitor of nuclear factor kappa-B kinase subunit epsilon (Homo sapiens), Q14164 (parent)
chain: MQSTANYLWHTDDLLGQGATASVYKARNKKSGELVAVKVFNTTSYLRPREVQVREFEVLRKLNHQNIVKLFAVEETGGSRQKVLVMEYCSSGSLLSVLESPENAFGLPEDEFLVVLRCVVAGMNHLRENGIVHRDIKPGNIMRLVGEEGQSIYKLTDFGAARELDDDEKFVSVYGTEEYLHPDMYERAVLRKPQQKAFGVTVDLWSIGVTLYHAATGSLPFIPFGGPRRNKEIMYRITTEKPAGAIAGAQRRENGPLEWSYTLPITCQLSLGLQSQLVPILANILEVEQAKCWGFDQFFAETSDILQRVVVHVFSLSQAVLHHIYIHAHNTIAIFQEAVHKQTSVAPRHQEYLFEGHLCVLEPSVSAQHIAHTTASSPLTLFSTAIPKGLAFRDPALDVPKFVPKVDLQADYNTAKGVLGAGYQALRLARALLDGQELMFRGLHWVMEVLQATCRRTLEVARTSLLYLSSSLGTERFSSVAGTPEIQELKAAAELRSRLRTLAEVLSRCSQNITETQESLSSLNRELVKSRDQVHEDRSIQQIQCCLDKMNFIYKQFKKSRMRPGLGYNEEQIHKLDKVNFSHLAKRLLQVFQEECVQKYQASLVTHGKRMRVVHETRNHLRLVGCSVAACNTEAQGVQESLSKLLEELSHQLLQDRAKGAQASPPPIAPYPSPTRKDLLLHMQELCEGMKLLASDLLDNNRIIERLNRVPAPPDV
partner: B1 chain

Variants of: B1
Conditions: with irf3_human IRF3, Q14653

| Variant | effect of a mutation on the interaction |
| --- | --- |
| I353A | disrupting interaction |
| L352A | disrupting interaction |

Variants of: B2
Conditions: with tbk1_human TBK1, Q9UHD2

| Variant | effect of a mutation on the interaction |
| --- | --- |
| L353A | increasing interaction |
| F354A | increasing interaction |
